This note sets out measurements from publication PMC9490022, “Enhanced salt-tolerance of Bacillus subtilis glutaminase by fusing self-assembling amphipathic peptides at its N-terminus” (Frontiers in Bioengineering and Biotechnology, 2022).

Substrate in the data set: NC(=O)CC[C@H](N)C(=O)O
The data set is described as follows: purified protein. It counts as biochemical, Bacillus subtilis. The conditions noted are these: 10–100 mM L-glutamine, 20 mM potassium phosphate, pH 7.5, 37°C, no NaCl.

For orientation: Km means the concentration of substrate that gives half-maximal velocity. As a reminder, the kcat is the maximal rate divided by the concentration of active sites. Broadly, the kcat/Km is the turnover number divided by the Michaelis constant.

B1: E3C/E55F/D213T (Bacillus subtilis subsp. subtilis str. 168; D213T/E3C/E55F) (protein)
chain: MKCLIKEHQKDINPALQLHDWVEYYRPFAANGQSANYIPALGKVNDSQLGICVLFPDGTMIHAGDWNVSFTMQSISKVISFIAACMSRGIPYVLDRVDVEPTGDAFNSIIRLEINKPGKPFNPMINAGALTIASILPGESAYEKLEFLYSVMETLIGKRPRIHEEVFRSEWETAHRNRALAYYLKETNFLEAEVEETLEVYLKQCAMESTTETIALIGLILAHDGYHPIRHEQVIPKDVAKLAKALMLTCGMYNASGKYAAFVGVPAKSGVSGGIMALVPPSARREQPFQSGCGIGIYGPAIDEYGNSLTGGMLLKHMAQEWELSIF
notes: full-length triple mutant, N-terminal His-tag kept, expressed in B. subtilis WB600 (pP43NMK), about 40 kDa
In the case of B1, the Km is 22.72 ± 1.5 mM, the kcat stood at 3730 ± 190 s⁻¹ and the kcat/Km came to 162000 ± 3240 M⁻¹ s⁻¹.

B2: EAK16-E3C/E55F/D213T (Bacillus subtilis subsp. subtilis str. 168; D213T/E3C/E55F) (protein)
chain: KCLIKEHQKDINPALQLHDWVEYYRPFAANGQSANYIPALGKVNDSQLGICVLFPDGTMIHAGDWNVSFTMQSISKVISFIAACMSRGIPYVLDRVDVEPTGDAFNSIIRLEINKPGKPFNPMINAGALTIASILPGESAYEKLEFLYSVMETLIGKRPRIHEEVFRSEWETAHRNRALAYYLKETNFLEAEVEETLEVYLKQCAMESTTETIALIGLILAHDGYHPIRHEQVIPKDVAKLAKALMLTCGMYNASGKYAAFVGVPAKSGVSGGIMALVPPSARREQPFQSGCGIGIYGPAIDEYGNSLTGGMLLKHMAQEWELSIF
notes: N-terminal His-tag, designed peptide EAK16 (…) and PT linker (…) fused to N-terminus of triple mutant; expressed in B. subtilis WB600; oligomerises
In the case of B2, the Km is listed as 18.45 ± 1.2 mM and the kcat/Km is 174000 ± 4200 M⁻¹ s⁻¹.
